Data on seven molecules can be found in patent US20150344540A1, “NOVEL GLP-1 RECEPTOR AGONISTS WITH CHOLESTEROL EFFLUX ACTIVITY” (NOVO NORDISK A/S, priority 2012, published 2015).

Where no end group is shown, it is not given here. [ ]: non-standard residue; d: D form. Aib = CC(C)(N)C(=O)O

This test concerns the target human GLP-1 receptor (human, UniProt P43220). Put plainly: cell-based or functional assay.

B1: [Aib2,Glu21,Lys29,Aib30,Leu31,Glu32,Phe33,Leu34,Leu36,Leu37]-Exendin-4-(1-37)-peptide amide (peptide)
peptide: H[Aib]EGTFTSDLSKQMEEEAVREFIEWLKNK[Aib]LEFLALL-NH2
modifications: N-terminus assumed
SMILES: CC[C@H](C)[C@H](NC(=O)[C@H](Cc1ccccc1)NC(=O)[C@H](CCC(=O)O)NC(=O)[C@H](CCCNC(=N)N)NC(=O)[C@@H](NC(=O)[C@H](C)NC(=O)[C@H](CCC(=O)O)NC(=O)[C@H](CCC(=O)O)NC(=O)[C@H](CCC(=O)O)NC(=O)[C@H](CCSC)NC(=O)[C@H](CCC(N)=O)NC(=O)[C@H](CCCCN)NC(=O)[C@H](CO)NC(=O)[C@H](CC(C)C)NC(=O)[C@H](CC(=O)O)NC(=O)[C@H](CO)NC(=O)[C@@H](NC(=O)[C@H](Cc1ccccc1)NC(=O)[C@@H](NC(=O)CNC(=O)[C@H](CCC(=O)O)NC(=O)C(C)(C)NC(=O)[C@@H](N)Cc1c[nH]cn1)[C@@H](C)O)[C@@H](C)O)C(C)C)C(=O)N[C@@H](CCC(=O)O)C(=O)N[C@@H](Cc1c[nH]c2ccccc12)C(=O)N[C@@H](CC(C)C)C(=O)N[C@@H](CCCCN)C(=O)N[C@@H](CC(N)=O)C(=O)N[C@@H](CCCCN)C(=O)NC(C)(C)C(=O)N[C@@H](CC(C)C)C(=O)N[C@@H](CCC(=O)O)C(=O)N[C@@H](Cc1ccccc1)C(=O)N[C@@H](CC(C)C)C(=O)N[C@@H](C)C(=O)N[C@@H](CC(C)C)C(=O)N[C@@H](CC(C)C)C(N)=O
On to B1, for which the “CRE luciferase EC50, 0% HSA” value amounted to 0.754 nM and the “CRE luciferase EC50, 1% HSA” value worked out at 0.388 nM.

B2: [Aib2,Glu21,Lys29,Aib30,Leu31,Glu32,Leu34,Glu35,Leu36,Leu37]-Exendin-4-(1-37)-peptide amide (peptide)
peptide: H[Aib]EGTFTSDLSKQMEEEAVREFIEWLKNK[Aib]LESLELL-NH2
modifications: N-terminus assumed
SMILES: CC[C@H](C)[C@H](NC(=O)[C@H](Cc1ccccc1)NC(=O)[C@H](CCC(=O)O)NC(=O)[C@H](CCCNC(=N)N)NC(=O)[C@@H](NC(=O)[C@H](C)NC(=O)[C@H](CCC(=O)O)NC(=O)[C@H](CCC(=O)O)NC(=O)[C@H](CCC(=O)O)NC(=O)[C@H](CCSC)NC(=O)[C@H](CCC(N)=O)NC(=O)[C@H](CCCCN)NC(=O)[C@H](CO)NC(=O)[C@H](CC(C)C)NC(=O)[C@H](CC(=O)O)NC(=O)[C@H](CO)NC(=O)[C@@H](NC(=O)[C@H](Cc1ccccc1)NC(=O)[C@@H](NC(=O)CNC(=O)[C@H](CCC(=O)O)NC(=O)C(C)(C)NC(=O)[C@@H](N)Cc1c[nH]cn1)[C@@H](C)O)[C@@H](C)O)C(C)C)C(=O)N[C@@H](CCC(=O)O)C(=O)N[C@@H](Cc1c[nH]c2ccccc12)C(=O)N[C@@H](CC(C)C)C(=O)N[C@@H](CCCCN)C(=O)N[C@@H](CC(N)=O)C(=O)N[C@@H](CCCCN)C(=O)NC(C)(C)C(=O)N[C@@H](CC(C)C)C(=O)N[C@@H](CCC(=O)O)C(=O)N[C@@H](CO)C(=O)N[C@@H](CC(C)C)C(=O)N[C@@H](CCC(=O)O)C(=O)N[C@@H](CC(C)C)C(=O)N[C@@H](CC(C)C)C(N)=O
For the molecule B2, the “CRE luciferase EC50, 0% HSA” value stood at 0.023 nM and the “CRE luciferase EC50, 1% HSA” value was found to be 0.011 nM.

B3: [Aib2,Glu21,Lys29,Aib30,Leu31,Phe33,Leu34,Glu35,Leu36,Leu37]-Exendin-4-(1-37)-peptide amide (peptide)
peptide: H[Aib]EGTFTSDLSKQMEEEAVREFIEWLKNK[Aib]LSFLELL-NH2
modifications: N-terminus assumed
SMILES: CC[C@H](C)[C@H](NC(=O)[C@H](Cc1ccccc1)NC(=O)[C@H](CCC(=O)O)NC(=O)[C@H](CCCNC(=N)N)NC(=O)[C@@H](NC(=O)[C@H](C)NC(=O)[C@H](CCC(=O)O)NC(=O)[C@H](CCC(=O)O)NC(=O)[C@H](CCC(=O)O)NC(=O)[C@H](CCSC)NC(=O)[C@H](CCC(N)=O)NC(=O)[C@H](CCCCN)NC(=O)[C@H](CO)NC(=O)[C@H](CC(C)C)NC(=O)[C@H](CC(=O)O)NC(=O)[C@H](CO)NC(=O)[C@@H](NC(=O)[C@H](Cc1ccccc1)NC(=O)[C@@H](NC(=O)CNC(=O)[C@H](CCC(=O)O)NC(=O)C(C)(C)NC(=O)[C@@H](N)Cc1c[nH]cn1)[C@@H](C)O)[C@@H](C)O)C(C)C)C(=O)N[C@@H](CCC(=O)O)C(=O)N[C@@H](Cc1c[nH]c2ccccc12)C(=O)N[C@@H](CC(C)C)C(=O)N[C@@H](CCCCN)C(=O)N[C@@H](CC(N)=O)C(=O)N[C@@H](CCCCN)C(=O)NC(C)(C)C(=O)N[C@@H](CC(C)C)C(=O)N[C@@H](CO)C(=O)N[C@@H](Cc1ccccc1)C(=O)N[C@@H](CC(C)C)C(=O)N[C@@H](CCC(=O)O)C(=O)N[C@@H](CC(C)C)C(=O)N[C@@H](CC(C)C)C(N)=O
On to B3, for which the “CRE luciferase EC50, 0% HSA” value was determined as 0.358 nM and the “CRE luciferase EC50, 1% HSA” value was determined as 0.145 nM.

B4: [Aib2,Glu21,Lys29,Aib30,Leu31,Glu32,Phe33,Leu34,Glu35,Leu36]-Exendin-4-(1-37)-peptide amide (peptide)
peptide: H[Aib]EGTFTSDLSKQMEEEAVREFIEWLKNK[Aib]LEFLELP-NH2
modifications: N-terminus assumed
SMILES: CC[C@H](C)[C@H](NC(=O)[C@H](Cc1ccccc1)NC(=O)[C@H](CCC(=O)O)NC(=O)[C@H](CCCNC(=N)N)NC(=O)[C@@H](NC(=O)[C@H](C)NC(=O)[C@H](CCC(=O)O)NC(=O)[C@H](CCC(=O)O)NC(=O)[C@H](CCC(=O)O)NC(=O)[C@H](CCSC)NC(=O)[C@H](CCC(N)=O)NC(=O)[C@H](CCCCN)NC(=O)[C@H](CO)NC(=O)[C@H](CC(C)C)NC(=O)[C@H](CC(=O)O)NC(=O)[C@H](CO)NC(=O)[C@@H](NC(=O)[C@H](Cc1ccccc1)NC(=O)[C@@H](NC(=O)CNC(=O)[C@H](CCC(=O)O)NC(=O)C(C)(C)NC(=O)[C@@H](N)Cc1c[nH]cn1)[C@@H](C)O)[C@@H](C)O)C(C)C)C(=O)N[C@@H](CCC(=O)O)C(=O)N[C@@H](Cc1c[nH]c2ccccc12)C(=O)N[C@@H](CC(C)C)C(=O)N[C@@H](CCCCN)C(=O)N[C@@H](CC(N)=O)C(=O)N[C@@H](CCCCN)C(=O)NC(C)(C)C(=O)N[C@@H](CC(C)C)C(=O)N[C@@H](CCC(=O)O)C(=O)N[C@@H](Cc1ccccc1)C(=O)N[C@@H](CC(C)C)C(=O)N[C@@H](CCC(=O)O)C(=O)N[C@@H](CC(C)C)C(=O)N1CCC[C@H]1C(N)=O
In the case of B4, the “CRE luciferase EC50, 0% HSA” value came to 0.023 nM and the “CRE luciferase EC50, 1% HSA” value amounted to 0.01 nM.

B5: [Aib2,Glu21,Lys29,Aib30,Leu31,Glu32,Phe33,Glu35,Leu36,Leu37]-Exendin-4-(1-37)-peptide amide (peptide)
peptide: H[Aib]EGTFTSDLSKQMEEEAVREFIEWLKNK[Aib]LEFGELL-NH2
modifications: N-terminus assumed
SMILES: CC[C@H](C)[C@H](NC(=O)[C@H](Cc1ccccc1)NC(=O)[C@H](CCC(=O)O)NC(=O)[C@H](CCCNC(=N)N)NC(=O)[C@@H](NC(=O)[C@H](C)NC(=O)[C@H](CCC(=O)O)NC(=O)[C@H](CCC(=O)O)NC(=O)[C@H](CCC(=O)O)NC(=O)[C@H](CCSC)NC(=O)[C@H](CCC(N)=O)NC(=O)[C@H](CCCCN)NC(=O)[C@H](CO)NC(=O)[C@H](CC(C)C)NC(=O)[C@H](CC(=O)O)NC(=O)[C@H](CO)NC(=O)[C@@H](NC(=O)[C@H](Cc1ccccc1)NC(=O)[C@@H](NC(=O)CNC(=O)[C@H](CCC(=O)O)NC(=O)C(C)(C)NC(=O)[C@@H](N)Cc1c[nH]cn1)[C@@H](C)O)[C@@H](C)O)C(C)C)C(=O)N[C@@H](CCC(=O)O)C(=O)N[C@@H](Cc1c[nH]c2ccccc12)C(=O)N[C@@H](CC(C)C)C(=O)N[C@@H](CCCCN)C(=O)N[C@@H](CC(N)=O)C(=O)N[C@@H](CCCCN)C(=O)NC(C)(C)C(=O)N[C@@H](CC(C)C)C(=O)N[C@@H](CCC(=O)O)C(=O)N[C@@H](Cc1ccccc1)C(=O)NCC(=O)N[C@@H](CCC(=O)O)C(=O)N[C@@H](CC(C)C)C(=O)N[C@@H](CC(C)C)C(N)=O
In the case of B5, the “CRE luciferase EC50, 0% HSA” value worked out at 0.026 nM and the “CRE luciferase EC50, 1% HSA” value worked out at 0.012 nM.

B6: [Aib2,Glu21,Lys29,Aib30,Leu31,Glu32,Phe33,Leu34,Glu35,Leu37]-Exendin-4-(1-37)-peptide amide (peptide)
peptide: H[Aib]EGTFTSDLSKQMEEEAVREFIEWLKNK[Aib]LEFLEPL-NH2
modifications: N-terminus assumed
SMILES: CC[C@H](C)[C@H](NC(=O)[C@H](Cc1ccccc1)NC(=O)[C@H](CCC(=O)O)NC(=O)[C@H](CCCNC(=N)N)NC(=O)[C@@H](NC(=O)[C@H](C)NC(=O)[C@H](CCC(=O)O)NC(=O)[C@H](CCC(=O)O)NC(=O)[C@H](CCC(=O)O)NC(=O)[C@H](CCSC)NC(=O)[C@H](CCC(N)=O)NC(=O)[C@H](CCCCN)NC(=O)[C@H](CO)NC(=O)[C@H](CC(C)C)NC(=O)[C@H](CC(=O)O)NC(=O)[C@H](CO)NC(=O)[C@@H](NC(=O)[C@H](Cc1ccccc1)NC(=O)[C@@H](NC(=O)CNC(=O)[C@H](CCC(=O)O)NC(=O)C(C)(C)NC(=O)[C@@H](N)Cc1c[nH]cn1)[C@@H](C)O)[C@@H](C)O)C(C)C)C(=O)N[C@@H](CCC(=O)O)C(=O)N[C@@H](Cc1c[nH]c2ccccc12)C(=O)N[C@@H](CC(C)C)C(=O)N[C@@H](CCCCN)C(=O)N[C@@H](CC(N)=O)C(=O)N[C@@H](CCCCN)C(=O)NC(C)(C)C(=O)N[C@@H](CC(C)C)C(=O)N[C@@H](CCC(=O)O)C(=O)N[C@@H](Cc1ccccc1)C(=O)N[C@@H](CC(C)C)C(=O)N[C@@H](CCC(=O)O)C(=O)N1CCC[C@H]1C(=O)N[C@@H](CC(C)C)C(N)=O
B6: the “CRE luciferase EC50, 0% HSA” value came to 0.032 nM and the “CRE luciferase EC50, 1% HSA” value worked out at 0.013 nM.

B7: [Aib2,Glu21,Lys29,Aib30,Glu32,Phe33,Leu34,Glu35,Leu36,Leu37]-Exendin-4-(1-37)-peptide amide (peptide)
peptide: H[Aib]EGTFTSDLSKQMEEEAVREFIEWLKNK[Aib]PEFLELL-NH2
modifications: N-terminus assumed
SMILES: CC[C@H](C)[C@H](NC(=O)[C@H](Cc1ccccc1)NC(=O)[C@H](CCC(=O)O)NC(=O)[C@H](CCCNC(=N)N)NC(=O)[C@@H](NC(=O)[C@H](C)NC(=O)[C@H](CCC(=O)O)NC(=O)[C@H](CCC(=O)O)NC(=O)[C@H](CCC(=O)O)NC(=O)[C@H](CCSC)NC(=O)[C@H](CCC(N)=O)NC(=O)[C@H](CCCCN)NC(=O)[C@H](CO)NC(=O)[C@H](CC(C)C)NC(=O)[C@H](CC(=O)O)NC(=O)[C@H](CO)NC(=O)[C@@H](NC(=O)[C@H](Cc1ccccc1)NC(=O)[C@@H](NC(=O)CNC(=O)[C@H](CCC(=O)O)NC(=O)C(C)(C)NC(=O)[C@@H](N)Cc1c[nH]cn1)[C@@H](C)O)[C@@H](C)O)C(C)C)C(=O)N[C@@H](CCC(=O)O)C(=O)N[C@@H](Cc1c[nH]c2ccccc12)C(=O)N[C@@H](CC(C)C)C(=O)N[C@@H](CCCCN)C(=O)N[C@@H](CC(N)=O)C(=O)N[C@@H](CCCCN)C(=O)NC(C)(C)C(=O)N1CCC[C@H]1C(=O)N[C@@H](CCC(=O)O)C(=O)N[C@@H](Cc1ccccc1)C(=O)N[C@@H](CC(C)C)C(=O)N[C@@H](CCC(=O)O)C(=O)N[C@@H](CC(C)C)C(=O)N[C@@H](CC(C)C)C(N)=O
For the molecule B7, the “CRE luciferase EC50, 0% HSA” value was 0.058 nM and the “CRE luciferase EC50, 1% HSA” value came out at 0.032 nM.
